Measured values published in the domain aggregation screens of Martell et al. (2025).

Experiment: soluble fraction after stress (log2 fold change); higher = more stays soluble; pooled small domains, quantitative proteomics
Settings: stress: 50 degC
Summary of the method: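 Pooled custom libraries of small protein domains were each held under stress at 50°C. The read-out, high-throughput quantitative proteomics, tracked how much of each protein stayed soluble. This is reported as a base-two log fold change used to indicate aggregation propensity. Higher values mean more protein remains in solution.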

Sequence	soluble fraction (log2)
HMEKSLSAQVYEKIKAGIISLKYPPGSVLKERELSESLGVSRTPVREAIQRLSQESWLVPGEGKRMQVRP	0.134
HMSGWIATGTATSTGNDVRVRSTPDATVNNNILLTLNKGNRFEIDGQTQNGFYHIKVNDTIGWISGLYVKE	-0.499
HMTRILTEDDIVNFLIRQPDTAYIIAKSFNENERKVKELLDLLIKKNKVREEIVNGVVSYAVN	-0.199
HMKPSKTDEAEYWLMERLEEGPQPAGDLIRIGEEFGYTPKILRDAGERFNMERYKDGLDHWMWKLPN	-0.0945
HMHPEPDPVLFIDGKEYPYDKLSELDETRVQSMTILPKKSAVKKYGDKYANRSIMEITLKKEN	0.0957
HMNIFAHQIGKLRTERHLSQTDVAKRLYVSRQAVSKWENGDAEPSLDNLIALAKLFNVSLDNLITGQ	-0.49
HMRVQELARDLGVEADTLIALLRQMGIPVTGARSAINDAQQAKVLAKIERERRAGHSDPAKAIQAVLEEAS	0.121
HMKRGDAYASEMIARLKEAHLIVMEGTLYPLLTRLKNDGLLSYRWEESTQGPPRKYYSITPVG	0.424
HMESPELIHILKEAEWQIWQQIQGLPEKQRIAMTLFAMDDLSYQEIADVMKVSVSAIESLLFRARTQLKKY	-0.601
HMKPDMAVIVGSRTLTFATTTDRQILVLRTDGTMVNRLSMKAGETRTITLPAGVYIVNGKKIIV	-0.808
HMVIGKHSGSHTLVNDLAKRGITLDKEESATLLEMVRKAAVGLHRSISSDELYGLYKDMKSGQDPFEDS	0.0935
HMALPGESVYVSILQSGSNRDQGVGYLDDGTMVVVDGAIKDIGKSIEVVINKSHQTVAGKMLFAKKVA	-0.0558
HMNQAIIVPDVKGLPLEEATTFFENNDLRYTVIDSVYTKDVPPGAIYEMVPGAGSKVKEGRIIFVTLNAR	-0.314
HMSRKERERSQHRRDILAAGEKIFAQKGYFNATIEEIAREAEFSVGTIYNFFSNKETLYQEIIRSI	-0.298
HMSELLIVGSEQDNTRLDRFLADQYEEYTRSFLQKLIDQGNVSINGISVKKSGIKLKENDEIAVTLPEPQ	0.389
HMKTTKDSVFEYIQKELMTNEEYKQGINTNVIAQHFGLQRSNISTILNELVKEDRLEKTNTRPVLYFLPQ	-0.0929
HMAFDESLVRSIQELLSELGYSPGKIDGLLGAKTVAAIKAFELEINKDQLTGEPSEELLIALQLAIRSSKM	-1.13
HMTYIQSNLKFLRNKMNISQEELAKRLFVTHQTVSNHENGKSQPNFEMIEKYASFFNVPFEDLIHKDLSL	-0.0206
HMSLDAAAVASKLIKRLSKSPGRRFALDDLAVDVGLPHEQGRPLVRSALELLVRTQQAVEGPPNVFRLFF	-1.57
HMDPERVVGQTGIVHLRIPARQHNTGKVMIEVQGSLREFDAVSEAEEIPTGTPILIVGRTEEGVFIAQPF	-0.0467
HMQGEDEILKIHEALEELAQIDARLVRVVEMRYFVGLSNQEIADSLGVTTRTVERDWEKARTFLFNALHP	-1.4
HMESLSHRQKSIVDWVQKNGYASIERMAEQFEVSAQTIRRDVIELSERRILQRHHGGASLPAG	-0.0143
HMLDGFEVGMTVMRKPGTETGFTGWPPFADKDEFPVIERIDTSDSTLLLRFNDTSWWINASLVEPSDV	-1.33
HMTRIHEEVVNQVHDLVKEGRFKAGDQLPSERELAEIFKVSRTSVREALRALETQGLIISRTGMGNFIAD	-0.0448
HMNDIDKFVAALVDQDTMAGTNRAFDENDIQTMKNMSSIEDVKQYAVANGLSSGKVNNALISAGL	0.156
HMADEIMYPVQVNGKVRAEIFVAADQSKNKELVLEMAKSEERVQKYLEEGNLIKEIFVPGRIVNLVI	0.0273
HMFSGVQLGQAISEAIKRKNVSQKEVADHFGVKQPSVSGWIKNGRIDKKHLDKLIDYFSDVVTPSHFGIE	0.246
